{
  "source": "patent US20210269521A1",
  "about": "(L AND L BIOPHARMA, published 2021)",
  "key": {"[1]": {"biological_target": "T1, human PD-1 extracellular domain protein expressed in Example 1 (tag not stated) (human, UniProt Q15116 25-170)", "T1 construct": "extracellular domain; also called PD-1 protein; not shown: human IgG1 Fc or his tag", "assay": "ELISA, PD-1 coated", "description": "PD-1 expressed in Example 1 was diluted to a concentration of 1 μg/ml with PBS buffer, pH 7.4, and added to a 96-well microplate (Corning, CLS3590-100EA) at 50 μl per well, thereby incubating in an incubator at 37° C. for 2 hours. After discarding the liquid, a blocking solution of 5% skimmed milk (Shanghai Shenggong Biological Engineering Co., Ltd., A600669-0250) diluted with PBS was added at 200 μl per well, followed by incubating at 37° C. for 3 hours or 4° C. overnight (16-18 hours)) for blocking. Subsequently, the blocking solution was discarded, and the microplate was washed 5 times with PBST buffer (pH 7.4 PBS containing 0.05% tween-20). […] Subsequently, the microplate was washed 5 times with PBST, then 50 μl/well of 1:2500 diluted HRP-labeled secondary antibody (Jackson Immuno Research, 115-035-003) was added, thereby incubating at 37° C. for 1 hour. After washing the microplate 5 times with PBST, 50 μl/well TMB chromogenic substrate (KPL, 52-00-03) was added, then incubated at room temperature for 5-10 min. Finally, 50 μl/well of 1M H₂SO₄ was added to stop the reaction. […] Go microplate reader (ThermoFisher, 51119200) was used to read the absorption value at 450 nm and the EC50 based on the OD value was calculated."}, "[2]": {"biological_target": "T2, human TIM-3 extracellular domain-human IgG1 Fc fusion protein (human, UniProt Q8TDQ0 22-199)", "T2 construct": "Made in house or bought (ACROBiosystems TM3-H5258); also called TIM-3-hFc; not shown: human IgG1 Fc", "assay": "ELISA; preparation buffer, 37°C 14 days (degraded sample)"}, "[3]": {"biological_target": "T1, human PD-1 extracellular domain protein …", "assay": "ELISA; preparation buffer, 37°C 14 days (degraded sample)"}, "[4]": {"biological_target": "T2, human TIM-3 extracellular domain-human …", "assay": "ELISA; pH 5.5, 40°C 10 days, against 0 day"}, "[5]": {"biological_target": "T1, human PD-1 extracellular domain protein …", "assay": "ELISA; pH 5.5, 40°C 10 days, against 0 day"}, "[6]": {"biological_target": "T2, human TIM-3 extracellular domain-human …", "assay": "ELISA; pH 5.5, 37°C 7 days"}, "[7]": {"biological_target": "T1, human PD-1 extracellular domain protein …", "assay": "ELISA; pH 5.5, 37°C 7 days"}, "[8]": {"biological_target": "T2, human TIM-3 extracellular domain-human …", "assay": "ELISA; 15 mg/mL, His buffer pH 6.0, 37°C 0 day (-80°C)"}, "[9]": {"biological_target": "T1, human PD-1 extracellular domain protein …", "assay": "ELISA; 15 mg/mL, His buffer pH 6.0, 37°C 0 day (-80°C)"}, "[10]": {"biological_target": "T2, human TIM-3 extracellular domain-human …", "assay": "ELISA; PBS, 37°C 14 days, against 0 day"}, "[11]": {"biological_target": "T1, human PD-1 extracellular domain protein …", "assay": "ELISA; PBS, 37°C 14 days, against 0 day"}, "[12]": {"biological_target": "T2, human TIM-3 extracellular domain-human …", "assay": "ELISA; pH 5.5, 37°C 5 days, against 0 day"}, "[13]": {"biological_target": "T1, human PD-1 extracellular domain protein …", "assay": "ELISA; pH 5.5, 37°C 5 days, against 0 day"}, "[14]": {"biological_target": "T2, human TIM-3 extracellular domain-human …", "assay": "ELISA; 15 mg/mL, His buffer pH 5.5, 37°C 0 day (-80°C)"}, "[15]": {"biological_target": "T1, human PD-1 extracellular domain protein …", "assay": "ELISA; 15 mg/mL, His buffer pH 5.5, 37°C 0 day (-80°C)"}, "[16]": {"biological_target": "T2, human TIM-3 extracellular domain-human …", "assay": "ELISA; pH 6.0, 0 day, against 0 day"}, "[17]": {"biological_target": "T1, human PD-1 extracellular domain protein …", "assay": "ELISA; pH 6.0, 0 day, against 0 day"}},
  "data": [
    {"binder": "bispecific antibody LB141 (bispecific antibody, human IgG4 S228P, kappa, ab6VL-(G4S)3-ab6VH-(G4S)3-PemVH-hIgG4 with PemVL-κ) light: EIVLTQSPATLSLSPGERATLSCRASKGVSTSGYSYLHWYQQKPGQAPRLLIYLASYLESGVPARFSGSGSGTDFTLTISSLEPEDFAVYYCQHSRDLPLTFGGGTKVEIKRTVAAPSVFIFPPSDEQLKSGTASVVCLLNNFYPREAKVQWKVDNALQSGNSQESVTEQDSKDSTYSLSSTLTLSKADYEKHKVYACEVTHQGLSSPVTKSFNRGEC heavy: not shown", "values": [
      {"measurement": "EC50", "setting": "[1]", "value": 0.127, "unit": "nM"},
      {"measurement": "EC50", "setting": "[2]", "value": 14.5, "unit": "nM"},
      {"measurement": "EC50", "setting": "[3]", "value": 0.446, "unit": "nM"},
      {"measurement": "Fold change of EC50", "setting": "[4]", "value": 1.04, "unit": "ratio"},
      {"measurement": "Fold change of EC50", "setting": "[5]", "value": 1.19, "unit": "ratio"},
      {"measurement": "EC50", "setting": "[6]", "value": 0.157, "unit": "nM"},
      {"measurement": "EC50", "setting": "[7]", "value": 0.128, "unit": "nM"},
      {"measurement": "EC50", "setting": "[8]", "value": 0.164, "unit": "nM"},
      {"measurement": "EC50", "setting": "[9]", "value": 0.146, "unit": "nM"},
      {"measurement": "Fold change of EC50", "setting": "[10]", "value": 2.71, "unit": "ratio"},
      {"measurement": "Fold change of EC50", "setting": "[11]", "value": 1.37, "unit": "ratio"},
      {"measurement": "Fold change of EC50", "setting": "[12]", "value": 0.93, "unit": "ratio"},
      {"measurement": "Fold change of EC50", "setting": "[13]", "value": 1.2, "unit": "ratio"},
      {"measurement": "EC50", "setting": "[14]", "value": 0.148, "unit": "nM"},
      {"measurement": "EC50", "setting": "[15]", "value": 0.144, "unit": "nM"},
      {"measurement": "Fold change of EC50", "setting": "[16]", "value": 1, "unit": "ratio"},
      {"measurement": "Fold change of EC50", "setting": "[17]", "value": 1, "unit": "ratio"}
    ]}
  ]
}
